Key:
[1] = molecular target: T1, human TIM-3 extracellular domain-human IgG1 Fc fusion protein (human, UniProt Q8TDQ0 22-199); test: ELISA
T1 construct: Made in house or bought (ACROBiosystems TM3-H5258); also called TIM-3-hFc; not shown: human IgG1 Fc
Description: Goat-anti-hFc (Jackson, 109-005-008) was diluted to a concentration of 1 μg/ml with PBS buffer (pH 7.4) and added to a 96-well microplate (Corning, CLS3590-100EA) at a volume of 50 μl/well, then incubated in an incubator at 37° C. for 2 hours (Or the antigen TIM-3 was directly used to coat the microplate with a concentration of 0.5 μg/ml, and then the antibody to be tested was directly added). After discarding the liquid, a blocking solution of 5% skimmed milk (skimmed milk powder purchased from Bright) diluted with PBS was added at 200 μl per well, and the microplate was incubated for 2.5 hours at 37° C. or overnight (16-18 hours) at 4° C. for blocking. The blocking solution was discarded, and the microplate was washed 5 times with PBST buffer (PBS with pH 7.4 containing 0.05% tween-20), then 50 μl/well of 0.5 μg/ml TIM-3-hFc (Example 1) was added and incubated for 2 hours in a 37° C. incubator. After incubation, the microplate was washed 6 times with PB ST. 50 μl/well of supernatant (containing testing antibody) or different concentrations of the antibody to be tested was added, and the microplate was incubated at 37° C. for 2 hours and washed 5 times with PBST. 50 μl/well of 1:2500 diluted HRP-labeled secondary antibody (Jackson Immuno Research, 115-035-003) was added to the microplate, incubating at 37° C. for 1 hour. After washing the microplate 5 times with PBST, 50 μl/well TMB chromogenic substrate (KPL, 52-00-03) was added to the microplate, followed by incubating at room temperature for 10-15 min.

[2] = molecular target: T2, human PD-1 extracellular domain protein expressed in Example 1 (tag not stated) (human, UniProt Q15116 25-170); test: ELISA, PD-1 coated
T2 construct: extracellular domain; also called PD-1 protein; not shown: human IgG1 Fc or his tag
Description: PD-1 expressed in Example 1 was diluted to a concentration of 1 μg/ml with PBS buffer, pH 7.4, and added to a 96-well microplate (Corning, CLS3590-100EA) at 50 μl per well, thereby incubating in an incubator at 37° C. for 2 hours. After discarding the liquid, a blocking solution of 5% skimmed milk (Shanghai Shenggong Biological Engineering Co., Ltd., A600669-0250) diluted with PBS was added at 200 μl per well, followed by incubating at 37° C. for 3 hours or 4° C. overnight (16-18 hours)) for blocking. Subsequently, the blocking solution was discarded, and the microplate was washed 5 times with PBST buffer (pH 7.4 PBS containing 0.05% tween-20). […] Subsequently, the microplate was washed 5 times with PBST, then 50 μl/well of 1:2500 diluted HRP-labeled secondary antibody (Jackson Immuno Research, 115-035-003) was added, thereby incubating at 37° C. for 1 hour. After washing the microplate 5 times with PBST, 50 μl/well TMB chromogenic substrate (KPL, 52-00-03) was added, then incubated at room temperature for 5-10 min. Finally, 50 μl/well of 1M H₂SO₄ was added to stop the reaction. […] Go microplate reader (ThermoFisher, 51119200) was used to read the absorption value at 450 nm and the EC50 based on the OD value was calculated.
The above-mentioned TIM-3 and PD-1 bispecific antibodies of the present invention were optimized and designed using the methods of Example 2 and Example 5, and their affinity for TIM-3 and PD-1 were tested respectively.

[3] = molecular target: T1, human TIM-3 extracellular domain-human …; test: ELISA; pH 5.5, 37°C 5 days
[4] = molecular target: T2, human PD-1 extracellular domain protein …; test: ELISA; pH 5.5, 37°C 5 days
[5] = molecular target: T1, human TIM-3 extracellular domain-human …; test: ELISA; preparation buffer, 37°C 7 days
[6] = molecular target: T2, human PD-1 extracellular domain protein …; test: ELISA; preparation buffer, 37°C 7 days
[7] = molecular target: T1, human TIM-3 extracellular domain-human …; test: ELISA; pH 6.0, 37°C 7 days, against 0 day
[8] = molecular target: T2, human PD-1 extracellular domain protein …; test: ELISA; pH 6.0, 37°C 7 days, against 0 day
[9] = molecular target: T1, human TIM-3 extracellular domain-human …; test: ELISA; pH 5.5, 40°C 10 days, against 0 day
[10] = molecular target: T2, human PD-1 extracellular domain protein …; test: ELISA; pH 5.5, 40°C 10 days, against 0 day
[11] = molecular target: T1, human TIM-3 extracellular domain-human …; test: ELISA; preparation buffer, 0 day, against 0 day
[12] = molecular target: T2, human PD-1 extracellular domain protein …; test: ELISA; preparation buffer, 0 day, against 0 day
[13] = molecular target: T1, human TIM-3 extracellular domain-human …; test: ELISA; 28.5 mg/mL, His buffer pH 5.5, 37°C 0 day (-80°C)
[14] = molecular target: T2, human PD-1 extracellular domain protein …; test: as above
[15] = molecular target: T1, human TIM-3 extracellular domain-human …; test: ELISA; preparation buffer, 37°C 14 days (degraded sample)
[16] = molecular target: T2, human PD-1 extracellular domain protein …; test: as above

EC50 [1]: 0.648 nM
EC50 [2]: 0.052 nM
EC50 [3]: 0.334 nM
EC50 [4]: 0.217 nM
EC50 [5]: 0.325 nM
EC50 [6]: 0.331 nM
Fold change of EC50 [7]: 0.83 ratio
Fold change of EC50 [8]: 0.79 ratio
Fold change of EC50 [9]: 1.04 ratio
Fold change of EC50 [10]: 1.19 ratio
Fold change of EC50 [11]: 1 ratio
Fold change of EC50 [12]: 1 ratio
EC50 [13]: 0.36 nM
EC50 [14]: 0.181 nM
EC50 [15]: 14.5 nM
EC50 [16]: 0.446 nM
B1: bispecific antibody LB141 (bispecific antibody, human IgG4 S228P, kappa)
light: EIVLTQSPATLSLSPGERATLSCRASKGVSTSGYSYLHWYQQKPGQAPRLLIYLASYLESGVPARFSGSGSGTDFTLTISSLEPEDFAVYYCQHSRDLPLTFGGGTKVEIKRTVAAPSVFIFPPSDEQLKSGTASVVCLLNNFYPREAKVQWKVDNALQSGNSQESVTEQDSKDSTYSLSSTLTLSKADYEKHKVYACEVTHQGLSSPVTKSFNRGEC
heavy: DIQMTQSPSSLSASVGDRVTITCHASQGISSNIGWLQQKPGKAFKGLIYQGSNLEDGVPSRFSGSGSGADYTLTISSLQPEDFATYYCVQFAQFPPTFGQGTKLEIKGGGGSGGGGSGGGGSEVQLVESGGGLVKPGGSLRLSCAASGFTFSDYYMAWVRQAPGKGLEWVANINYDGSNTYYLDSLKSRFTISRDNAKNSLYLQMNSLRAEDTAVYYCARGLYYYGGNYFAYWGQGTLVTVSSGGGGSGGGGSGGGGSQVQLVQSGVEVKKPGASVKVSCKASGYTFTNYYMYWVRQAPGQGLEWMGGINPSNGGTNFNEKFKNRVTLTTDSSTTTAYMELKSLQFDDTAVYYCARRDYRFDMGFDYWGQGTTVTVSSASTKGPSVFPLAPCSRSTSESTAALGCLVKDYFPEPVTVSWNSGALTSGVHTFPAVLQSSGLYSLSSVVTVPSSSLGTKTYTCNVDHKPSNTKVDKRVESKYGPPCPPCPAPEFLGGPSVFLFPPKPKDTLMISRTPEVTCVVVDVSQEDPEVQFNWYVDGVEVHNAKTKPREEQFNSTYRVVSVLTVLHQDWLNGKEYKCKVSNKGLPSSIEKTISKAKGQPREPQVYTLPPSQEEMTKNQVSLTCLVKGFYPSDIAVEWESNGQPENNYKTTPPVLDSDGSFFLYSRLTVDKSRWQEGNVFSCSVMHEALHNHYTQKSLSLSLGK
notes: ab6VL-(G4S)3-ab6VH-(G4S)3-PemVH-hIgG4 with PemVL-κ

— patent publication US20210269521A1 (L AND L BIOPHARMA, published 2021)
